Laboratory results taken from patent publication US20250145690A1 (US Dept. of Health and Human Services, published 2025).

How the values were obtained:
Assay in all cases: bead flow cytometry, AUC minus CD4
[1] = target: T1, HCoV-NL63 spike protein (Sino Biological 40604-V08B) (HCoV-NL63, UniProt Q6Q1S2 19-1296)
T1 sequence: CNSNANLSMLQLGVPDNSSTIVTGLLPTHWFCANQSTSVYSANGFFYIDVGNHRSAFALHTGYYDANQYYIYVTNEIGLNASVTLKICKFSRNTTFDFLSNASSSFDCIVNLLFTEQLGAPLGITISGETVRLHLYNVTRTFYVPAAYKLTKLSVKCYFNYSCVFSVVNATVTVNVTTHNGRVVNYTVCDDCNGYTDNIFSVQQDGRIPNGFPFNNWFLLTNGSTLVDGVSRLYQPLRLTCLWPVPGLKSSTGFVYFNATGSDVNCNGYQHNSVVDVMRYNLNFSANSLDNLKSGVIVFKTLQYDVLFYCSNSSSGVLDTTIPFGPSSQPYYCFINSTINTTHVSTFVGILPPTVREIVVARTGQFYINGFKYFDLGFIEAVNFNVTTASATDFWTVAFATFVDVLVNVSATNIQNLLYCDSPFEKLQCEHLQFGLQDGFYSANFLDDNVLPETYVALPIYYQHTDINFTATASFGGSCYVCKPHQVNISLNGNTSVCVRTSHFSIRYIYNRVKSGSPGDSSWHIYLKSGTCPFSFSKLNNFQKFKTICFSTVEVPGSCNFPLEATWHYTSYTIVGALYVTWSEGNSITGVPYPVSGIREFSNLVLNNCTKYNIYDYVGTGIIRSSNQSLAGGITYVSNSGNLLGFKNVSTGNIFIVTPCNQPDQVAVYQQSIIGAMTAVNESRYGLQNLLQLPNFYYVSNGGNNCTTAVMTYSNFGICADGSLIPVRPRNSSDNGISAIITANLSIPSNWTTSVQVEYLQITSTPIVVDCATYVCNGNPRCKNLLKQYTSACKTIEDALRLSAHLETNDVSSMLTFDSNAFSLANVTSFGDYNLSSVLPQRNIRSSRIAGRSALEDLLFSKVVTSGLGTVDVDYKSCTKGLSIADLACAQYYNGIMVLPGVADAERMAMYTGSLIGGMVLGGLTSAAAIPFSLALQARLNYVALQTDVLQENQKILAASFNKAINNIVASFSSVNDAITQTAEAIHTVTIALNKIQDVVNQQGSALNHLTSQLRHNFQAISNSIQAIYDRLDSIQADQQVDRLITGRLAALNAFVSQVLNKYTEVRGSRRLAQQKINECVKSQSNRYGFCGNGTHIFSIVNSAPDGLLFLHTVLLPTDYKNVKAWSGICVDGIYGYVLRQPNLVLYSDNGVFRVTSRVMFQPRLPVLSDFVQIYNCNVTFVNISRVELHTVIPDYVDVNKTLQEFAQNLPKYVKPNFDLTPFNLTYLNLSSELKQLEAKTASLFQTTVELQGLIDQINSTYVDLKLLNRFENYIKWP

[2] = target: T2, HCoV-229E spike protein (Sino Biological 40605-V08B) (HCoV-229E, UniProt P15423 16-1115)
T2 sequence: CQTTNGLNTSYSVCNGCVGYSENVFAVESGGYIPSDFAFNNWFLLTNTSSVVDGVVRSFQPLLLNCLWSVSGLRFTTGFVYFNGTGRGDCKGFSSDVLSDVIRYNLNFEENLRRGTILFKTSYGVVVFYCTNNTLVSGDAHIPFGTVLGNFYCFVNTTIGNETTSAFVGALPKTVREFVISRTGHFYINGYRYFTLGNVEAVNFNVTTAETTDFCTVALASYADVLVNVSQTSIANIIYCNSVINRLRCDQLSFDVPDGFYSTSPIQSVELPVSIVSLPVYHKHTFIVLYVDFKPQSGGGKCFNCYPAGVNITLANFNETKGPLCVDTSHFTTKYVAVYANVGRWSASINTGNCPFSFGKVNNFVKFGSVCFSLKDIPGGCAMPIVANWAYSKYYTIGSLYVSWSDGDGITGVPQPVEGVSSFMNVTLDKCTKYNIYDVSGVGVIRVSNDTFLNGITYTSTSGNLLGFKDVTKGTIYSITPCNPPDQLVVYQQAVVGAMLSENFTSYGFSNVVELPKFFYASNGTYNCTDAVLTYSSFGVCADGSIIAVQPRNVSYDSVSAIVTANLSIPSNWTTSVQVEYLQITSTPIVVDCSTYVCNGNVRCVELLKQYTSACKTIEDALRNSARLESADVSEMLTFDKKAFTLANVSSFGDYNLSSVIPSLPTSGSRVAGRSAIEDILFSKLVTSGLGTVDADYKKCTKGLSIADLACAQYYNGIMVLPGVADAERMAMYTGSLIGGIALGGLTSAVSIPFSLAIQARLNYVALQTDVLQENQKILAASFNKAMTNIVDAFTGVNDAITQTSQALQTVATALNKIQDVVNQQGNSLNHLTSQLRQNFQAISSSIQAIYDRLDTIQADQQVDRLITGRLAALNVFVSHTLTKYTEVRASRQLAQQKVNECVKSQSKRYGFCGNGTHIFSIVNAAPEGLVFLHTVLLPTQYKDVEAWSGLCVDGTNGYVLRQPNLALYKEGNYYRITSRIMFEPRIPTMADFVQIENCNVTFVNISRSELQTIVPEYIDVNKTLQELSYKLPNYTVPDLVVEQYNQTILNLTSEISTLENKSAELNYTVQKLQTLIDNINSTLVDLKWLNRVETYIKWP

[3] = target: SARS-CoV-2 spike receptor binding domain (RBD), recombinant (SARS-CoV-2, UniProt P0DTC2 319-541)
[4] = target: SARS-CoV-2 spike N-terminal domain (NTD), recombinant (SARS-CoV-2, UniProt P0DTC2 14-305)

Measured: binding result

B1: COV57-19 (antibody, V domains shown)
VH: QVQLQESGPGLVKPSGTLSLTCAVSGDSISSSNWWSWVRQPPGKGLEWIGEIYQSGTTNNNPSLKSRVTISIDKSKNQFSLNLTSVTAADTAVYYCARAPLVFRSYGMDVWGQGTTVTVSS
VL: DIQMTQSPSSLSASVGDRVTITCRASQTIRTYLNWYQQKPGKAPKLLIYDASNLQSGVPSRFSGSGSGTDFTLTISSLEPEDFATYYCQQSYITPPWTFGQGTKVEIK
no binding (tested: 200 µg/mL): [1] | [2] | [3] | [4]

B2: COV57-05 (antibody, V domains shown)
VH: QVQLLESGPGLVKPSGTLSLTCDVSGDSISSSNWWSWVRQSPGKGLEWIGEIYQSGTTNNNPSLKSRVTISIDKSKNQFSLNLTSVTAADTAVYYCARAPLVFRSYGMDVWGQGTTVTVSS
VL: DIQMTQSPSSLSASVGDRVTITCRASQTIRTYLNWYQQKPGKAPKLLIYDASNLQSGVPSRFSGSGSGTDFTLTISSLEPEDFATYYCQQSYITPPWTFGQGTRVEIK
no binding (tested: 200 µg/mL): [1] | [2] | [3] | [4]

B3: COV49-06 (antibody, V domains shown)
VH: EVQLLESGGGLVRPGGSLRLSCAASGFTFTNYAMSWVRQAPGKGLEWVSAISGGDGRTSYYADSVKGRFTSSRDNSKNTLYLQMNSLRAEDTAVYYCAKGAFYNILSSIIVEGDYWGQGTLVTVSS
VL: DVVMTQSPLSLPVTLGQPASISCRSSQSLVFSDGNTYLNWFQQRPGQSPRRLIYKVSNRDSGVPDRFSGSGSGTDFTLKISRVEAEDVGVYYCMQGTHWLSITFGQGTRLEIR
no binding (tested: 200 µg/mL): [1] | [2] | [3] | [4]

B4: COV49-33 (antibody, V domains shown)
VH: EVQLLESGGGLAQPGGSLRLSCVASGFSFDDYAMTWVRQPPGKGLEWVSAVSGGGQTTYSTDSVKGRFTTSRDNSKNTLYLQMNSLRGEDTAVYYCVKGAFYNILSSIIVEGDYWGQGTLVTVSS
VL: VVVLTQSPLSLPVTLGQPASVSCRSSQSLVFSDGNTYLNWFQQRPGQSPRRLIYQVSNRDPGVPDRFSGSGSGTDFTLKISRVEAEDVGVYYCMQGTHWLSITFGQGTRLEIK
no binding (tested: 200 µg/mL): [1] | [2] | [3] | [4]

B5: COV49-30 (antibody, V domains shown)
VH: EVQLLESGGGLVQPGGSLRVSCTVSGFTFSDYSMSWVRQAPGKGLDWVSAISGTGETAYYADFVKGRFTSSRDNSKNTVYLQMNSLRGEDTAVYYCVKGVFYNILSSIIVEGDYWGQGTLVTVSS
VL: GVVMTQSPLSLPVTLGQPASISCRSSQSLVFSDGNTYLNWFQQRPGQSPRRLIYKVSKRDSGVPDRFSGSGSGTDFTLTISRVEAEDVGVYYCMQGTHWLSITFGQGTRLEIK
no binding (tested: 200 µg/mL): [1] | [2] | [3] | [4]

B6: COV49-18 (antibody, V domains shown)
VH: EVQLLESGGGLVQPGGSLRVSCAVSGFTFSNYAMSWVRQAPGKGLDWVSAISGSGETRYYADFVKGRFTISRDNSKNTLYLQMNSLRGEDTAVYYCVKGAFYNILSSIIVEGDYWGQGTLVTVSS
VL: DVVMTQSPLSLPVTLGQPASISCRSSQSLVFSDGNTYLNWFQQRPGQSPRRLIYKVSKRDSGVPDRFSGSGSGTDFTLKISRVEAEDVGVYYCMQGTHWLSITFGQGTRLEIK
no binding (tested: 200 µg/mL): [1] | [2] | [3] | [4]

B7: COV49-47 (antibody, V domains shown)
VH: EVQLLESGGGLAQPGGSLRLSCVASGFSFNDYAMAWVRQAPGKGLEWVSAVSGGGQTTYSTDSVKGRFTTSRDNSKNTLYLQMNGLRAEDAAVYYCVKGAFYNILSSIIVEGDNWGQGTLVTVSS
VL: GVVLTQSPLSLPVTLGQPASISCRSSQSLVFSDGNTYLNWFQQRPGQSPRRLIYQVSNRDPGVPDRFSGSGSGTDFTLKISRVEAEDVGVYYCMQGTHWLSITFGQGTRLEIK
no binding (tested: 200 µg/mL): [1] | [2] | [3] | [4]

B8: COV49-07 (antibody, V domains shown)
VH: EVQLLESGGGLVQPGGSLRVSCTVSGFTFSDYSMSWVRQAPGKGLEWVSAISGTGETAYYADFVKGRFTSSRDNSKNTLYLQMNTLRGEDTAVYYCVKGAFYNILSSIIVEGDYWGQGTLVTVSS
VL: GVVMTQSPLSLPVTLGQPASISCRSSQSLVFSDGNTYLNWFQQRPGQSPRRLIYKVSERDSGVPDRFSGSGSGTDFTLTISRVEAEDVGVYYCMQGTHWLSITFGQGTRLEIK
no binding (tested: 200 µg/mL): [1] | [2] | [3] | [4]

B9: COV57-45 (antibody, V domains shown)
VH: QVQLVQSGTEVKKPGSSVKVSCRASGGTLSSYSVSWVRQAPGQGLEWMGRIIPILDKKTYAQKYQGRVTILADTSTSTVYMELSSLKSDDSAVYFCTTFDYDTSGQRDQHDYWGQGTPVTVSS
VL: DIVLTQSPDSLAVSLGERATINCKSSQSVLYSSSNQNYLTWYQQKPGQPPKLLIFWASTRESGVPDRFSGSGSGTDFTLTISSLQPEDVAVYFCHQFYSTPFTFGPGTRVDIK
no binding (tested: 200 µg/mL): [1] | [2] | [3] | [4]
